Test results published in the Human Domainome abundance scans (Beltran et al. 2025).

B1: Chromodomain-helicase-DNA-binding protein 4, residues 623 to 675; numbered along this chain, Q14839 (parent)
chain: MIHRILNHSVDKKGHVHYLIKWRDLPYDQASWESEDVEIQDYDLFKQSYWNHR
B2: LIM and senescent cell antigen-like-containing domain protein 2, residues 13 to 71; numbered along this chain, Q7Z4I7 (parent)
chain: AVCQRCQARFSPAERIVNSNGELYHEHCFVCAQCFRPFPEGLFYEFEGRKYCEHDFQML

Variants of: B1
Test: abundance fitness (aPCA) (normalised: wild type 0, dead -1); higher = more abundant; growth selection in yeast, the domain comes from the species named
Details: Homo sapiens

Abundance fitness: each site, then its substitutions
I2: S -0.708; N -0.751; Q -0.931; L -0.879; W -0.856; T -0.686; K -0.82; F -0.945

Variants of: B2
Test: as above
Details: Homo sapiens

Abundance fitness of substitutions, site by site:
D55: W -0.815; I -0.921; F -1.14; T -0.651; M -1.24; K -0.918; N -0.606; Q -0.753; V -0.964; R -0.747; Y -0.814; S -0.667; G -0.636; E -0.456; P -0.839; H 0.018; L -0.933
L59: I 0.099; S -0.312; E -0.373; R -0.123; A 0.035; Q -0.069; P -0.235; G 0.183; W -0.348; Y -0.204; T -0.141; F -0.616; N -0.676; V 0.036; C -0.033
F56: A -0.316; T -0.114; L -0.091; K -0.757; R -0.361; E -0.648; S -0.105; W -0.364
Q57: E -0.052; V -0.156; I -0.295; N 0.062; G 0.118; R 0.107; K 0.006; C -0.352; S -0.145; F -0.346; W -0.28; T -0.121; A -0.077; H 0.056; D -0.264; L -0.331; Y -0.586
M58: N 0.132; D -0.106; Y -0.309; V 0.007; H -0.052; C 0.043; T 0.123; F 0.154; K 0.043; R 0.066; E 0.061; W -0.055; L 0.04; G 0.223; Q 0.013; P -0.06; A -0.004
H54: W -0.157; Y -0.061
